Results from patent EP4803541A1 (Changchun Genescience Pharmaceutical Co., Ltd., dated 2026).

Tests used:
GH (GH stock solution) [1] = molecular target: GH (GH stock solution) (UniProt P01241); assay: affinity chromatography, VHH-conjugated medium loaded with GH stock solution; medium in 0.5M NaOH 6h
rhGH protein = rhGH protein (UniProt: P01241) (human) (UniProt P01241); assay: ELISA on coated rhGH, anti-6*His HRP; sample after 0.5M NaOH 24h, against WT; parameters: unit not given beside the values
Sequence of rhGH protein (UniProt: P01241) (human) (UniProt P01241) (P01241 27-217 limits assumed, one chain of several): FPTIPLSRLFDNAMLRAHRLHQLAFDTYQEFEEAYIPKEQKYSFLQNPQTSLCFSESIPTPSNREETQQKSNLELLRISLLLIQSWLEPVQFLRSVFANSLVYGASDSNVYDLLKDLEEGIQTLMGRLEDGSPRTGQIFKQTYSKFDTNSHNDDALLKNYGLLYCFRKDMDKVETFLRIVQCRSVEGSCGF

GH (GH stock solution) [2] = molecular target: GH (GH stock solution) (UniProt P01241); assay: affinity chromatography, VHH-conjugated medium loaded with GH stock solution; medium in 0.1M NaOH 0h
GH (GH stock solution) [3] = molecular target: GH (GH stock solution) (UniProt P01241); assay: loss of dynamic binding capacity of the conjugated medium for GH after 0.5M NaOH 24h
GH (GH stock solution) [4] = molecular target: GH (GH stock solution) (UniProt P01241); assay: affinity chromatography, VHH-conjugated medium loaded with GH stock solution; medium in 0.5M NaOH 24h
GH (GH stock solution) [5] = molecular target: GH (GH stock solution) (UniProt P01241); assay: affinity chromatography, VHH-conjugated medium loaded with GH stock solution; medium in 0.1M NaOH 32h
GH (GH stock solution) [6] = molecular target: GH (GH stock solution) (UniProt P01241); assay: loss of dynamic binding capacity of the conjugated medium for GH after 0.1M NaOH 32h
GH (GH stock solution) [7] = molecular target: GH (GH stock solution) (UniProt P01241); assay: affinity chromatography, VHH-conjugated medium loaded with GH stock solution; medium in 0.1M NaOH 24h
GH (GH stock solution) [8] = molecular target: GH (GH stock solution) (UniProt P01241); assay: affinity chromatography, VHH-conjugated medium loaded with GH stock solution; medium in 0.5M NaOH 0h
[9] = molecular target: T1, rhGH protein (UniProt: P01241) (human, UniProt P01241 27-217); assay: ELISA on coated rhGH, anti-6*His HRP; sample after 0.3 M NaOH 24h
T1 construct: Coated at 5 ug/ml in the ELISA; also called human growth hormone
T1 sequence (P01241 27-217 limits assumed, one chain of several): as above

[10] = molecular target: T1, rhGH protein (UniProt: P01241); assay: ELISA on coated rhGH; sample after 0.5M NaOH 24h

Sequence of GH (GH stock solution) (P01241 27-217 limits assumed): as the sequence (P01241 27-217 limits assumed, one chain of several) above

Binder | dynamic binding capacity at 10% breakthrough (GH (GH stock solution) [1]) | EC50 against that of the WT after 0.5M alkali (% higher than WT) (rhGH protein) | dynamic binding capacity at 10% breakthrough (GH (GH stock solution) [2]) | residual DBC (a decrease of DBC) (GH (GH stock solution) [3]) [%] | dynamic binding capacity at 10% breakthrough (GH (GH stock solution) [4]) | dynamic binding capacity at 10% breakthrough (GH (GH stock solution) [5]) | DBC decay rate (GH (GH stock solution) [6]) [%] | dynamic binding capacity at 10% breakthrough (GH (GH stock solution) [7]) | dynamic binding capacity at 10% breakthrough (GH (GH stock solution) [8]) | binding result [9] | binding result [10]
M20 (First round) (VHH) VHH: QVQLVESGGGLAQAGGSLRLSCAVSGMPEFARAMGWFRQAPGKERELVAAIEGIGATTYYADSVKGRFTISRDDAANTVLLQMNSLKPDDTAVYYCAAAFSVTIPTRARHWVDWGPGTLVTVSS | 14.3 | 50 | 19.6 | < 49 | 10.2 | 16.9 | < 6 | 18 | 19.6 | – | –
WT (with tag), unmodified GH single-domain antibody molecule (VHH) VHH: QVQLVESGGGLAQAGGSLRLSCAVSGMPEFARAMGWFRQAPGKERELLAAIEGIGATTYYADSVKGRFTISRDDAANTVLLQMNSLKPDDTAVYYCAAAFSVTIPTRARHWVDWGPGTLVTVSS | 5.78 | – | 22.3 | 85 | 3.39 | 14.7 | 35 | 16.2 | 22.3 | – | –
M25 (First round) (VHH, tail DDDDK-SGGGGS-HHHHHH) VHH: QVQLVESGGGLAQAGGSLRLSCAVSGMPEFARAMGWFRQAPGKERELLAAIEGIGATTYYADSVKGRFTISRDDAANTVLLQMNSLKPDDTAVYYCAAAFSVTIPTRARHWDDWGPGTLVTVSS | – | – | – | – | – | – | – | – | – | binds | –
M8 (First round) (VHH, tail DDDDK-SGGGGS-HHHHHH) VHH: QVQLVESGGGLAQAGGSLRLSCAVSGMPEFARAMGWFRQAPGKERELLAAIEGIGATTYYADSVKGRFTISRDDAANTVLLQMNSLKPDDTAVYYCAAAFSVTIPTRARHWVYWGPGTLVTVSS | – | – | – | – | – | – | – | – | – | binds | –

Other lines, results leading:

dynamic binding capacity at 10% breakthrough (GH (GH stock solution) [1]) | EC50 against that of the WT after 0.5M alkali (% higher than WT) (rhGH protein) | dynamic binding capacity at 10% breakthrough (GH (GH stock solution) [2]) | residual DBC (a decrease of DBC) (GH (GH stock solution) [3]) [%] | dynamic binding capacity at 10% breakthrough (GH (GH stock solution) [4]) | dynamic binding capacity at 10% breakthrough (GH (GH stock solution) [5]) | DBC decay rate (GH (GH stock solution) [6]) [%] | dynamic binding capacity at 10% breakthrough (GH (GH stock solution) [7]) | dynamic binding capacity at 10% breakthrough (GH (GH stock solution) [8]) | binding result [9] | binding result [10] | Binder
– | – | – | – | – | – | – | – | – | binds | – | M29 (First round) (VHH, tail DDDDK-SGGGGS-HHHHHH) VHH: QVQLVESGGGLAQAGGSLRLSCAVSGMPEFARAMGWFRQAPGKERELLAAIEGIGAKTYYADSVKGRFTISRDDAANTVLLQMNSLKPDDTAVYYCAAAFSVTIPTRARHWVDWGPGTLVTVSS
– | – | – | – | – | – | – | – | – | binds | – | M31 (First round) (VHH, tail DDDDK-SGGGGS-HHHHHH) VHH: QVQLVESGGGLAQAGGSLRLSCAVSGMPEFARAMGWFRQAPGKERELLAAIEGIGATTYYADSVKGRFTISRDDAANTVLLQMNSLKPDDTAVYYCAAAFSVTIPTRAEHWVDWGPGTLVTVSS
13.5 | – | 16.3 | < 49 | 9.06 | 15.4 | < 6 | 16.3 | 16.3 | – | binds | M78 (Second round) (VHH, Entry already carries A57D; G134R; D102Y); tail DDDDK-SGGRGS-HHHHHH) VHH: QVQLVESGGGLAQAGGSLRLSCAVSGMPEFARAMGWFRQAPGKERELLAAIEGIGDTTYYADSVKGRFTISRDDAANTVLLQMNSLKPDDTAVYYCAAAFSVTIPTRARHWVYWGPGTLVTVSS
13.2 | – | 15 | < 49 | 8.24 | 15.4 | < 6 | 15.8 | 14.7 | – | binds | M74 (Second round) (VHH, Entry already carries A57D; G134R; R100eE); tail DDDDK-SGGRGS-HHHHHH) VHH: QVQLVESGGGLAQAGGSLRLSCAVSGMPEFARAMGWFRQAPGKERELLAAIEGIGDTTYYADSVKGRFTISRDDAANTVLLQMNSLKPDDTAVYYCAAAFSVTIPTRAEHWVDWGPGTLVTVSS
